Measured values as given in PMC5431903, “Genomic RNA folding mediates assembly of human parechovirus” (Nature Communications, 2017).

Molecular target: the molecule itself
Assay: not stated; purified HPeV1 virions heated to 56 °C for 30 min, then 4 °C for 10 days (1x selection buffer: 10 mM Tris-HCl pH 7.7, 150 mM NaCl, 1 mM MgCl2); whole capsids removed by centrifugation; how the pentamers were shown is in Supplementary Fig. 1

B1: HPeV1 (Harris strain) capsid protein protomer of VP0, VP1 and VP3 (complex)
chain 1: METIKSIADMATGVVSSVDSTINAVNEKVESVGNEIGGNLLTKVADDASNILGPNCFATTAEPENKNVVQATTTVNTTNLTQHPSAPTMPFSPDFSNVDNFHSMAYDITTGDKNPSKLVRLETHEWTPSWARGYQITHVELPKVFWDHQDKPAYGQSRYFAAVRCGFHFQVQVNVNQGTAGSALVVYEPKPVVTYDSKLEFGAFTNLPHVLMNLAETTQADLCIPYVADTNYVKTDSSDLGQLKVYVWTPLSIPTGSANQVDVTILGSLLQLDFQNPRVFAQDVNIYDN
chain 2: NSWGSQMDLTDPLCIEDDTENCKQTMSPNELGLTSAQDDGPLGQEKPNYFLNFRSMNVDIFTVSHTKVDNLFGRAWFFMEHTFTNEGQWRVPLEFPKQGHGSLSLLFAYFTGELNIHVLFLSERGFLRVAHTYDTSNDRVNFLSSNGVITVPAGEQMTLSAPYYSNKPLRTVRDNNSLGYLMCKPFLTGTSTGKIEVYLSLRCPNFFFPLPAPKVTSSRALRGDMANLTNQ
chain 3: APNGKKKNWKKIMTMSTKYKWTRTKIDIAEGPGSMNMANVLCTTGAQSVALVGERAFYDPRTAGSKSRFDDLVKIAQLFSVMADSTTPSENHGVDAKGYFKWSATTAPQSIVHRNIVYLRLFPNLNVFVNSYSYFRGSLVLRLSVYASTFNRGRLRMGFFPNATTDSTSTLDNAIYTICDIGSDNSFEITIPYSFSTWMRKTNGHPIGLFQIEVLNRLTYNSSSPSEVYCIVQGKMGQDARFFCPTGSVVTFQ
notes: capsid protein VP0 of human parechovirus 1, Harris strain; cut product of the viral polyprotein, not cleaved into VP2 and VP4; capsid protein VP1 of human parechovirus 1, Harris strain; cut product of the viral polyprotein; capsid protein VP3 of human parechovirus 1, Harris strain; One protomer holds one copy each of VP0, VP1 and VP3; five protomers form the pentameric capsomer, and the capsid is …
Question: How did the “stoichiometry N” value turn out when B1 was run?
Answer: Its value is 5.
